system: human osteosarcoma cells, MG63; experiment: Tumor cell recoding via quantification of pRB and p53 (immunofluorescence staining, ImageJ); type: cell-based; conditions: Table 6; peptide in association with PET; MG63 cells
Description: The cells were first fixed for 20 min with 4% paraformaldehyde/PBS at 4° C. After fixation, the cells were permeabilized in PBS containing 1% Triton X-100 for 15 min. Protein immunofluorescent visualization was performed by first treating the cells with 1% (v/v) specific monoclonal antibodies for 1 hour at 37° C. Then the samples were incubated with Alexa Fluor® 568 or 647 (F(ab′)2 fragment of IgG(H+L)) during 30 min at room temperature. The cell nuclei were counterstained in 20 ng/mL DAPI for 10 min at room temperature.
For this type of quantification the freeware image analysis ImageJ® software was used. The raw image was first converted to an 8-bit file, and then the unsharp mask feature was used (settings 1:0.2) to remove the image background (rolling ball radius 10). After smoothing, the resulting image, which appears similar to the original photomicrograph but with minimal background, was then converted to a binary image by setting a threshold. Threshold values were determined empirically by selecting a setting, which gave the most accurate binary image for a subset of randomly selected photomicrographs. The cell area was determined by manual delineation on raw fluorescent images. Total contact area and mean contact area per cell were calculated by “analyse particules” in ImageJ®. A minimum of 50 cells per condition were analyzed.
Neoplastic cells (in this example osteosarcoma cells) were cultured on pharmaceutical associations comprising PET as a bioactive carrier and one of GFR-binding compounds of SEQ ID NO: 11 to 14, 24 to 26 and 51 to 63. A rapid (24 hours) decrease of the tumor markers was observed (FIG. 7). The adhesion checkpoint then activates the tumor suppressor proteins p53 and pRB. […]

Molecule	P53 (%)	pRB (%)
AASKASSVPQEEEPLPMVYY (Non-cyclic GFR-binding peptide) [SEQ ID NO: 207]	24%	17%
GIPEPSSAPTELSATSILYY (Non-cyclic GFR-binding peptide) [SEQ ID NO: 204]	33%	16%
GIPEPSSAPVDLKPLSTLYV (Non-cyclic GFR-binding peptide) [SEQ ID NO: 206]	32%	12%
KIPKASSVPTGGSNITVQIM (Non-cyclic GFR-binding peptide) [SEQ ID NO: 209]	45%	11%
KIPKASSVSQKMEPLTMLYY (Non-cyclic GFR-binding peptide) [SEQ ID NO: 208]	30%	12%
NDEGLESVPEDLSSLSVLFF (Non-cyclic GFR-binding peptide) [SEQ ID NO: 201]	29%	12%
RVPSTSSAPTKMNAISMLYF (Non-cyclic GFR-binding peptide) [SEQ ID NO: 203]	31%	9%
RVPSTSSVPTGQSAISTLYL (Non-cyclic GFR-binding peptide) [SEQ ID NO: 202]	25%	10%
STPPTSSVPTELSPISTLYK (Non-cyclic GFR-binding peptide) [SEQ ID NO: 205]	41%	20%

target: growth factor receptors; experiment: cell-based or functional assay; conditions: not given

Molecule	p-Smad1/5/8 (%)
KIPKASSVPQELEPLPIVYY [GFR-binding compound of SEQ ID NO: 74]	44%
TQVKMRPVQVRKI [GFR-binding compound of SEQ ID NO: 92]	44%
NDEGLESVPTEEEPLTILYY [GFR-binding compound of SEQ ID NO: 79]	58%
VSQDLRSVKVAKV [GFR-binding compound of SEQ ID NO: 89]	36%
SSVKSQPSRVHHKPLSMLYV [GFR-binding compound of SEQ ID NO: 72]	47%
ASAAPSSAPTALSATSVLYY [GFR-binding compound of SEQ ID NO: 82]	41%
RNVQSRPTQVQLKPLSMLYV [GFR-binding compound of SEQ ID NO: 73]	48%
SIPKASSVPQELEPLPIVYY [GFR-binding compound of SEQ ID NO: 76]	54%
NDEGLESVPTEERSVKVAKV [GFR-binding compound of SEQ ID NO: 91]	55%
KVGKASSVPTKLEPISILYL [GFR-binding compound of SEQ ID NO: 71]	66%
SIPKASSTPTELSPINMLYF [GFR-binding compound of SEQ ID NO: 64]	37%
YVPKPSSTPTKLSPINMLYF [GFR-binding compound of SEQ ID NO: 66]	38%
ASASPSSVSQDLSSLSILFF [GFR-binding compound of SEQ ID NO: 68]	40%
GIPEPSSVPQKMEPLPIVYY [GFR-binding compound of SEQ ID NO: 75]	51%
ASASPSSVSQDLEPLTILYY [GFR-binding compound of SEQ ID NO: 78]	52%
KIPKASSVPTELSPISVLYK [GFR-binding compound of SEQ ID NO: 87]	32%
ASAAPSSVPQALRSVKVAKV [GFR-binding compound of SEQ ID NO: 88]	37%
YVPKPSSAPTKLNAISVLYF [GFR-binding compound of SEQ ID NO: 99]	66%
RVPSTSSAPTKTSATSVLYY [GFR-binding compound of SEQ ID NO: 81]	34%

Molecule	p-Smad1/5/8 (%)
ASAAPSSVPQALSSLSILFF [GFR-binding compound of SEQ ID NO: 67]	38%
GIPEPSSTPTKMSPINMLYF [GFR-binding compound of SEQ ID NO: 94]	39%
TVPKPSSAPTQLRSVKVAKV [GFR-binding compound of SEQ ID NO: 83]	35%
HVPKPSSAPTKLEPISILYL [GFR-binding compound of SEQ ID NO: 100]	75%
TKPTSTPTKLSPINMLYF [GFR-binding compound of SEQ ID NO: 65]	36%
VVPKPSSAPTQLEPISILYL [GFR-binding compound of SEQ ID NO: 69]	39%
KIPKASSTPTELSPINMLYF [GFR-binding compound of SEQ ID NO: 93]	47%
NDEGLESVPTEESSLSILFF [GFR-binding compound of SEQ ID NO: 80]	27%
ASAAPSSVPQALEPLTILYY [GFR-binding compound of SEQ ID NO: 77]	55%
RNVQSRPVPTQLSPISVLYK [GFR-binding compound of SEQ ID NO: 86]	26%
NDEGLESVPTEESAISMLYL [GFR-binding compound of SEQ ID NO: 96]	78%
KVGKASSVPQKLEPLPIVYY [GFR-binding compound of SEQ ID NO: 84]	33%
KASKASSVPQKLEPLPIVYY [GFR-binding compound of SEQ ID NO: 85]	22%
ASASPSSVPQDLRSVKVAKV [GFR-binding compound of SEQ ID NO: 90]	56%
SSVKSQPSRVHHSPISILFI [GFR-binding compound of SEQ ID NO: 97]	39%
AVPKASSAPTKLEPISILYL [GFR-binding compound of SEQ ID NO: 70]	67%
RNVQSRPTQVQLSPISILFI [GFR-binding compound of SEQ ID NO: 98]	34%
VPTGQSAISMLYL [GFR-binding compound of SEQ ID NO: 95]	52%
